Among the data in PMC12391199 are stoichiometry N values, retold here.

Test [1] concerns the target tail hub of bacteriophage Epsilon15 (bacteriophage Epsilon15). Nature of the test: cryo-EM structure; asymmetric single-particle reconstruction of whole ϵ15 virions (iodixanol-purified, in PBS, graphene oxide-coated grids, Titan Krios 300 kV, RELION 2.0), with focused refinement of the portal at ~7 Å.
Test [2] has as its target portal protein gp4 of bacteriophage Epsilon15 (portal complex) (bacteriophage Epsilon15). Described as above.

“tail hub of bacteriophage Epsilon15 (complex)”: the stoichiometry N (usually a count of units in the complex or per binding partner) in test [1] is 6.
“portal protein gp4 of bacteriophage Epsilon15 (portal complex) (natural protein)” had a stoichiometry N in test [2] of 12.
